This is an account of results in the Immune Epitope Database (IEDB).

Test [1] has as its target HLA-B*15:01. Kind of test: IEDB peptide-MHC binding, purified MHC/competitive/radioactivity; filed as Kd, often an IC50 or EC50 that approximates it; ≥ and ≤ were set here for values at or beyond the usual limits of such assays.
A further test deals with HLA-A*32:01. Described as above.
The next test deals with HLA-A*31:01. Kind of test: IEDB peptide-MHC binding, purified MHC/competitive/fluorescence; filed as Kd, often an IC50 or EC50 that approximates it; ≥ and ≤ were set here for values at or beyond the usual limits of such assays.
Test [2] has as its target HLA-A*03:01. The experiment in a line: IEDB peptide-MHC binding, purified MHC/direct/fluorescence; filed as Kd, often an IC50 or EC50 that approximates it; ≥ and ≤ were set here for values at or beyond the usual limits of such assays.
The target in the next test is HLA-B*15:03. Kind of test: IEDB peptide-MHC binding, purified MHC/competitive/radioactivity; filed as Kd, often an IC50 or EC50 that approximates it; ≥ and ≤ were set here for values at or beyond the usual limits of such assays.
Test [3] concerns the target HLA-B*15:01. Kind of test: IEDB peptide-MHC binding, purified MHC/competitive/fluorescence; filed as Kd, often an IC50 or EC50 that approximates it; ≥ and ≤ were set here for values at or beyond the usual limits of such assays.
Test [4] deals with HLA-A*02:01. The test is described as above. Particulars: source organism: Shigella boydii CDC 3083-94.
Test [5] concerns the target HLA-A*11:01. The experiment in a line: IEDB peptide-MHC binding, purified MHC/competitive/fluorescence; ≥ and ≤ were set here for values at or beyond the usual limits of such assays.
The target of the next test is HLA-B*53:01. Kind of test: IEDB peptide-MHC binding, purified MHC/competitive/radioactivity; filed as Kd, often an IC50 or EC50 that approximates it; ≥ and ≤ were set here for values at or beyond the usual limits of such assays.
The target of a further test is HLA-B*58:01. The test is described as above.
The target of test [6] is HLA-A*03:01. The experiment in a line: IEDB peptide-MHC binding, purified MHC/competitive/fluorescence; filed as Kd, often an IC50 or EC50 that approximates it; ≥ and ≤ were set here for values at or beyond the usual limits of such assays.
The target in a further test is HLA-B*08:01. The experiment in a line: IEDB peptide-MHC binding, purified MHC/competitive/radioactivity; filed as Kd, often an IC50 or EC50 that approximates it; ≥ and ≤ were set here for values at or beyond the usual limits of such assays.
Test [7] addresses HLA-A*24:02. The experiment in a line: IEDB peptide-MHC binding, purified MHC/competitive/fluorescence; ≥ and ≤ were set here for values at or beyond the usual limits of such assays. The note with it: source organism: Vaccinia virus WR.
The target in test [8] is HLA-A*02:01. The test is described as above. The note with it: source organism: Vaccinia virus WR.
Test [9] has as its target HLA-B*46:01. Kind of test: IEDB peptide-MHC binding, purified MHC/competitive/fluorescence; filed as Kd, often an IC50 or EC50 that approximates it; ≥ and ≤ were set here for values at or beyond the usual limits of such assays. Particulars: source organism: Clostridium botulinum B str. Eklund 17B (NRP).
The next test concerns the target HLA-A*30:01. The experiment in a line: IEDB peptide-MHC binding, purified MHC/competitive/radioactivity; filed as Kd, often an IC50 or EC50 that approximates it; ≥ and ≤ were set here for values at or beyond the usual limits of such assays. The note with it: source organism: Vaccinia virus WR.
Test [10] deals with HLA-A*24:02. The description is as above. Particulars: source organism: Dengue virus 4 Philippines/H241/1956.
Another test has as its target HLA-A*01:01. The experiment in a line: IEDB peptide-MHC binding, purified MHC/direct/fluorescence; filed as Kd, often an IC50 or EC50 that approximates it; ≥ and ≤ were set here for values at or beyond the usual limits of such assays. Particulars: source organism: West Nile virus.
In another test the target is HLA-B*18:01. The test is described as above. Particulars: source organism: West Nile virus.
The target in a further test is HLA-B*44:02. The test is described as above. Particulars: source organism: West Nile virus.
The next test addresses HLA-A*69:01. Described as above. The note with it: source organism: West Nile virus.
For a further test, the target named is HLA-B*48:01. Described as above. Particulars: source organism: West Nile virus.
Another test deals with HLA-B*27:05. The test is described as above. The note with it: source organism: West Nile virus.
The target of test [11] is HLA-B*46:01. Described as above. Particulars: source organism: West Nile virus.
Test [12] has as its target HLA-A*11:01. The test is described as above.
Another test deals with HLA-B*40:01. The description is as above. The note with it: source organism: West Nile virus.
The target in the next test is HLA-A*29:02. Described as above. The note with it: source organism: West Nile virus.
Another test addresses HLA-B*57:01. Described as above. Particulars: source organism: West Nile virus.
The next test concerns the target HLA-A*30:02. Kind of test: IEDB peptide-MHC binding, purified MHC/competitive/radioactivity; filed as Kd, often an IC50 or EC50 that approximates it; ≥ and ≤ were set here for values at or beyond the usual limits of such assays. The note with it: source organism: Dengue virus 1 Brazil/97-11/1997.
[13] abbreviates: source organism: Dengue virus 2 Peru/IQT2913/1996.
[14] abbreviates: source organism: Mycobacterium tuberculosis.
Where [15] appears, read: source organism: Vaccinia virus Copenhagen.
[16] abbreviates: source organism: Vaccinia virus WR.
Where [17] appears, read: source organism: Dengue virus 1 Brazil/97-11/1997.
Where [18] appears, read: source organism: West Nile virus.
Setting [19] is: source organism: Escherichia coli 536.
The mark [20] stands for this setting: source organism: Dengue virus 4 Philippines/H241/1956.
Setting [21] is: source organism: Escherichia coli 101-1.
Where [22] appears, read: source organism: Yellow fever virus.
[23] abbreviates: source organism: Escherichia coli O157:H7.

Where only a bound is given, the exact number is not on record here.

Regarding RQMEGEGVF, the Kd in the test with HLA-B*15:01 [1] (setting [13]) came out at 4.86 nM; in the test with HLA-A*32:01 (setting [13]), 429 nM.

On to YLHYYRIIR, for which the Kd was 245 nM with HLA-A*31:01 (source organism: Mycobacterium tuberculosis H37Rv) and ≥ 20000 nM with HLA-A*03:01 [2] (setting [14]).

As for SLNTSTLGF, the Kd amounted to 13.1 nM with HLA-B*15:03 (setting [15]), 1.67 nM in the test with HLA-B*15:01 [1] (setting [15]) and 416 nM in the test with HLA-A*32:01 (setting [15]).

As to RKYGCGNMF, the dissociation constant (Kd) with HLA-B*15:03 (setting [16]) was 1.25 nM.

On to AANCFGQHV, for which, in the test with HLA-B*15:03 (setting [16]), the Kd worked out at 21.8 nM.

Turning to FTFEWNGRI, the Kd in the test with HLA-B*15:01 [3] (source organism: Shigella boydii CDC 3083-94) was ≥ 20000 nM; in the test with HLA-A*02:01 [4] it was 14.5 nM.

With AADEPPLVR, the concentration for half-maximal inhibition (IC50) with HLA-A*11:01 [5] (source organism: Vaccinia virus) is ≥ 142000 nM.

Regarding FKVLDGSPI, the Kd in the test with HLA-B*15:03 (setting [16]) came to 0.822 nM.

In the case of FVTNEVHTW, the values for the dissociation constant Kd with HLA-B*53:01 (setting [17]) and with HLA-B*58:01 (setting [17]) were 61.2 nM and 29.9 nM, respectively.

As for KMYACKNDM, the Kd with HLA-B*15:03 (setting [16]) was 42.9 nM.

With VLALLAFFR, the Kd was found to be 1080 nM with HLA-A*31:01 (setting [18]) and 160 nM with HLA-A*03:01 [6] (setting [18]).

In the case of FQSMHFTDM, the Kd with HLA-B*15:03 (setting [16]) amounted to 5.12 nM; with HLA-B*08:01 (setting [16]), 84.4 nM.

On to VTVVAVPLR, for which the equilibrium dissociation constant (Kd) was 107 nM with HLA-A*31:01 (setting [19]) and ≥ 20000 nM with HLA-A*03:01 [6] (setting [19]).

Turning to FYTRVLKPS, the half-maximal inhibitory concentration (IC50) with HLA-A*24:02 [7] was 7.11 µM; with HLA-A*11:01 [5] (setting [16]), ≥ 179000 nM; with HLA-A*02:01 [8], ≥ 110 µM.

SAGESSILR: the IC50 in the test with HLA-A*11:01 [5] (setting [15]) amounted to 1410 nM.

In the test with HLA-B*46:01 [9], FFKDGMAEV showed a Kd of 398 nM.

Turning to KMTRVFNKF, the Kd was 15.1 µM in the test with HLA-A*30:01; 0.431 nM with HLA-B*15:03 (setting [16]); 7560 nM in the test with HLA-B*15:01 [1] (setting [16]); 10600 nM with HLA-B*08:01 (setting [16]); 10600 nM with HLA-A*32:01 (setting [16]).

With WASVKKDLIS, the equilibrium dissociation constant (Kd) with HLA-B*58:01 (setting [17]) worked out at 81.3 nM.

Regarding ENKKNLSEQ, in the test with HLA-A*11:01 [5] (source organism: Sudan ebolavirus), the IC50 was ≥ 75400 nM.

Take LMVSGPNVV: the Kd with HLA-B*15:03 (setting [16]) turned out to be 3.8 nM.

VMKRYSAPF: the equilibrium dissociation constant (Kd) amounted to 994 nM with HLA-A*24:02 [10], 10.2 nM with HLA-B*15:01 [1] (setting [20]) and 8.98 nM with HLA-B*08:01 (setting [20]).

As for KIRNRIERL, the Kd with HLA-A*01:01, in the test with HLA-B*18:01, with HLA-B*44:02, with HLA-A*69:01, in the test with HLA-B*48:01 and with HLA-B*27:05 was ≥ 20 µM throughout. Also, the dissociation constant (Kd) is ≥ 20 µM with HLA-B*46:01 [11]; ≥ 20000 nM in the test with HLA-A*11:01 [12] (setting [18]); ≥ 20 µM in the test with HLA-B*40:01; ≥ 20 µM with HLA-A*29:02; ≥ 20 µM in the test with HLA-B*57:01; ≥ 20000 nM with HLA-A*03:01 [2] (setting [18]).

Regarding FMASPENVI, the Kd in the test with HLA-B*15:03 (setting [16]) was determined as 6.38 nM.

As to MKYCSYQSF, in the test with HLA-B*15:03 (setting [16]), the Kd amounted to 1.55 nM.

For the sequence HTFTAPIAK, the figures for the Kd in the test with HLA-A*31:01 (setting [21]) and with HLA-A*03:01 [6] (setting [21]) were 19.1 nM and 112 nM, respectively.

In the case of TAAVLLLVTH, in the test with HLA-B*58:01 (source organism: Dengue virus 3 Singapore/8120/1995), the Kd was determined as 304 nM.

For WVAEIQPQW, the equilibrium dissociation constant (Kd) with HLA-B*53:01 (setting [20]) was determined as 6.52 nM; with HLA-B*58:01 (setting [20]), 57.6 nM.

Regarding VIGFLALAK, the equilibrium dissociation constant (Kd) with HLA-A*31:01 (source organism: Orthohantavirus dobravaense) was ≥ 20000 nM; with HLA-A*11:01 [12] (source organism: Amur virus) it was 12.6 nM; with HLA-A*03:01 [2] (source organism: Amur virus), 232 nM.

In the test with HLA-A*11:01 [5] (setting [18]), GTSGSPIVDK showed an IC50 of 212 nM.

Consider TINAVASRK, for which the Kd in the test with HLA-A*31:01 (setting [22]) was 801 nM; in the test with HLA-A*11:01 [12] (setting [22]), 4.3 nM.

For the sequence RVIYPANQK, the Kd with HLA-A*31:01 (source organism: Escherichia coli O157:H7 str. Sakai) came to 72.2 nM; with HLA-A*11:01 [12] (setting [23]), 6.9 nM; in the test with HLA-A*03:01 [2] (setting [23]), 35 nM.

Take AVVRFRTHF: in the test with HLA-B*15:03 (setting [16]), the Kd was determined as 191 nM.

As to SPVMSGNSY, the Kd with HLA-B*15:03 (setting [16]) turned out to be 363 nM.

For the sequence VLQSAANMY, the Kd with HLA-B*15:01 [3] (source organism: Bacillus anthracis str. A0488) worked out at 67.5 nM.

For RLYSIFLIF, the Kd is 0.158 nM with HLA-B*15:03 (setting [15]), 3.35 nM in the test with HLA-B*15:01 [1] (setting [15]), 15700 nM with HLA-B*08:01 (setting [15]) and 6.87 nM with HLA-A*32:01 (setting [15]).

As for ASAIVLEFF, the Kd with HLA-B*58:01 (source organism: Dengue virus 3 Martinique/1243/1999) was 28.2 nM.

On to RSADGSPPY, for which the results for the equilibrium dissociation constant (Kd) in the test with HLA-A*31:01 (source organism: Mycobacterium tuberculosis variant bovis BCG str. Pasteur 1173P2), with HLA-A*11:01 [12] (setting [14]) and with HLA-A*03:01 [2] (setting [14]) were ≥ 20000 nM, 25.7 nM and 2500 nM, respectively.

With LLSRFFNMI, the figures for the Kd with HLA-B*15:03 (setting [16]), in the test with HLA-B*08:01 (setting [16]) and with HLA-A*32:01 (setting [16]) were 821 nM, 1640 nM and 714 nM, respectively.

As to TMAHRKPTY, the results for the Kd with HLA-B*15:01 [1] (setting [17]) and with HLA-A*30:02 were 144 nM and 2060 nM, respectively.

With SSMKGENVF, the dissociation constant Kd with HLA-B*15:03 (setting [16]) was found to be 47 nM.

For the sequence LIRPKILSM, the values for the Kd with HLA-B*15:01 [1] (setting [16]) and in the test with HLA-B*08:01 (setting [16]) were 10.4 nM and 0.548 nM, respectively.
